Test results published in publication PMC4434891, “The Smc5-Smc6 heterodimer associates with DNA through several independent binding domains” (Scientific Reports, 2015).

Target: T1, Smc6 FL (full-length Smc6) (UniProt Q12749 1-1114)
T1 construct: Smc6, full length, residues 1-1114; Vector YEpFAT4; also called FL Smc6; source: yeast, purified as previously described (StrepTrap column)
T1 sequence (looked up): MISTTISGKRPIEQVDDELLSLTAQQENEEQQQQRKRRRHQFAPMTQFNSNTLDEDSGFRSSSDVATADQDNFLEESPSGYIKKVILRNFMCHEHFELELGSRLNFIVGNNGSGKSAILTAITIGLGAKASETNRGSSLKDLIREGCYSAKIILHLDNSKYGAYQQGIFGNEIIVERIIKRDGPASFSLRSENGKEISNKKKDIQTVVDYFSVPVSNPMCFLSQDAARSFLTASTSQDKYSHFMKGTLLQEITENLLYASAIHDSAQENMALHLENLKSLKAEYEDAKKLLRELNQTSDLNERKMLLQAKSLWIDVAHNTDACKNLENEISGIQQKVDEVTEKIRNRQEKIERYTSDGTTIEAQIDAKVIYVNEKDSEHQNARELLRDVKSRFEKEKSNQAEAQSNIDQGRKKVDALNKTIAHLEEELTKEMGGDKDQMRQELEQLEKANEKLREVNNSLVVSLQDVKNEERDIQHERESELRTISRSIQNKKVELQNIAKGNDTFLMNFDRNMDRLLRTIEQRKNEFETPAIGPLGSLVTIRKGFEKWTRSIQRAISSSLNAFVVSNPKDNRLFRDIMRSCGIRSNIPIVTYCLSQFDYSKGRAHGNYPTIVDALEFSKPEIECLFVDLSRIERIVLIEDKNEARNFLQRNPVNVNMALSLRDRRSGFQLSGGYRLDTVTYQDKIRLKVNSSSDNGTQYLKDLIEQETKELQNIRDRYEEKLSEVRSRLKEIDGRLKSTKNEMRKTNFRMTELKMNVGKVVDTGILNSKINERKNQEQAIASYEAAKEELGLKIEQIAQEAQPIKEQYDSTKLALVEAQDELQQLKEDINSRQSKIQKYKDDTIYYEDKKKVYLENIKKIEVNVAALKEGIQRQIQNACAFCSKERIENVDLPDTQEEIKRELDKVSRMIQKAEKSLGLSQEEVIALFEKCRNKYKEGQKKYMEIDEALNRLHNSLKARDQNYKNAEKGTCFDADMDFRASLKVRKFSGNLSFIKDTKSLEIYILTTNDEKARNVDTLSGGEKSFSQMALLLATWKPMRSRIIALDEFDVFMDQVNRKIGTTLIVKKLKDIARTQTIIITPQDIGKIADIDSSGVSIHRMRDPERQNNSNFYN
Experiment: SEC; StrepTrap eluates of Smc6 (5 mL) and Smc5 (150 uL) mixed, overnight at 4 °C, concentrated; complexes separated from monomeric subunits on Superose 6 10/300 in buffer G (25 mM potassium phosphate pH 8.0, 750 mM NaCl, 15% glycerol, 0.2% Tween 20, 2 mM 2-ME, 1 mM EDTA)
Conditions: both partners purified

binding result: binds
B1: Smc5 FL (full-length Smc5) (natural protein, UniProt Q08204 1-1093, looked up)
chain: MTSLIDLGRYVERTHHGEDTEPRSKRVKIAKPDLSSFQPGSIIKIRLQDFVTYTLTEFNLSPSLNMIIGPNGSGKSTFVCAVCLGLAGKPEYIGRSKKVEDFIKNGQDVSKIEITLKNSPNVTDIEYIDARDETIKITRIITRSKRRSDYLINDYQVSESVVKTLVAQLNIQLDNLCQFLSQERVEEFARLKSVKLLVETIRSIDASLLDVLDELRELQGNEQSLQKDLDFKKAKIVHLRQESDKLRKSVESLRDFQNKKGEIELHSQLLPYVKVKDHKEKLNIYKEEYERAKANLRAILKDKKPFANTKKTLENQVEELTEKCSLKTDEFLKAKEKINEIFEKLNTIRDEVIKKKNQNEYYRGRTKKLQATIISTKEDFLRSQEILAQTHLPEKSVFEDIDIKRKEIINKEGEIRDLISEIDAKANAINHEMRSIQRQAESKTKSLTTTDKIGILNQDQDLKEVRDAVLMVREHPEMKDKILEPPIMTVSAINAQFAAYLAQCVDYNTSKALTVVDSDSYKLFANPILDKFKVNLRELSSADTTPPVPAETVRDLGFEGYLSDFITGDKRVMKMLCQTSKIHTIPVSRRELTPAQIKKLITPRPNGKILFKRIIHGNRLVDIKQSAYGSKQVFPTDVSIKQTNFYQGSIMSNEQKIRIENEIINLKNEYNDRKSTLDALSNQKSGYRHELSELASKNDDINREAHQLNEIRKKYTMRKSTIETLREKLDQLKREARKDVSQKIKDIDDQIQQLLLKQRHLLSKMASSMKSLKNCQKELISTQILQFEAQNMDVSMNDVIGFFNEREADLKSQYEDKKKFVKEMRDTPEFQSWMREIRSYDQDTKEKLNKVAEKYEEEGNFNLSFVQDVLDKLESEIAMVNHDESAVTILDQVTAELRELEHTVPQQSKDLETIKAKLKEDHAVLEPKLDDIVSKISARFARLFNNVGSAGAVRLEKPKDYAEWKIEIMVKFRDNAPLKKLDSHTQSGGERAVSTVLYMIALQEFTSAPFRVVDEINQGMDSRNERIVHKAMVENACAENTSQYFLITPKLLTGLHYHEKMRIHCVMAGSWIPNPSEDPKMIHFGETSNYSFD
notes: Smc5, full length, residues 1-1093; Vector YEpFAT4; also called FL Smc5; source: yeast, purified as previously described (StrepTrap column)
